Assay results from patent US20250027068.
Numbering of substitutions follows the chain as printed.

B1: PRT-342 (protein)
chain: MTITSVWTKGVTPPTPEDFRENNEDVLHAPYLANQGWYDITKAFDGKDNLLCGAATAGNMLHWWFDQNKEEIERYLKKHPEKQKIIFGNQELFDVKAAIDTKDSQTNSKLFNYFRDKAFPNLSARQLGVMPDLVLDMFINGYYLNLGKTQSTDVNRPYQDKDKRGGIFDAVFTRGDQTTLLTARHDLKNKGLNEISDLIKQELTEGKALALSHTYANVSINHVINLWGADFDAEGNLEAIYVTDSDANPSIGMKKYFVGRNAHGKVAISAKKIEGDNIGAQVLGLFTLSTGQDIWQKLS
B2: PRT-350 (protein)
chain: MSQTEDSESLQRLRDIEDFQAEKKDQNVVYTKWLDGVDVKDHDFRKIVDGNSAYYATPLLNGRGWYDINKDFNRDSDKCAAAVAANMFHYWLDINRDNVDRFLRQNPEKHGIIELPDGQLKLSDFLNTYESDHGYRDKSKLFDFISENFNGPVWTDKLLDNYINGYAYNYKYGRTIEDPTKNTSKINFFKEVFNEKILTNNHSIRNQNEFSVLLIEALYTGKAIGLSYGPAGLRHSLGHIISVWGADLDADGNVVAIYVTDSDDKKLTIGDERVGLKRYKISTDDENRLRLTAYEETHNTGGQVRGLWTLDTGKYAWADYFDKTEQTGTDQAEQ
B3: PRT-358 (protein)
chain: B2 chain with S52I, I94R, H133D, N287G, Y315Q
B4: PRT-318 (protein)
chain: MTITSVWTKGVTPPTPEDFRYNNEDVLHAPYVANQGWYDITKTFDGKDNLLCGAATAGNMLHWWFDQNKEEIERYLKKHPEKQKIIFNNQEWFDVKAAIDTKDSQTNSKLFDYFRDKAFPNLSARQLGVMPDLVLDMFINGYYLNLGKTQSTDVNRPYQDKDKRGGIFDAVFTRGDQTTLLTARHDLKNKGLNEISDLIKQELTEGKALALSHTYANVRINHVINLWGADFDAEGNLIAIYVTDSDANASIGMKKYFVGVNANGKVAISAKKIEGDNIGAQVLGLFTLSLGQDIWQKLS
B5: PRT-319 (protein)
chain: B4 chain with Y21E, W92L, V260R
B6: PRT-327 (protein)
chain: B4 chain with Y21E, W92L, N236E, A249P, V260R, L290T
B7: PRT-334 (protein)
chain: B1 chain with L32V, A43T, N112D, N121G, M130F, D176V, S219R, N236E, E238I, H263N
B8: PRT-328 (protein)
chain: B4 chain with Y21K, W92L, D112N, N121G, M130F, D176V, V260R, L290T
B9: PRT-326 (protein)
chain: B1 chain with L32V, A43T, N112D, S219R, N236E, E238I, H263N, I294Q
B10: PRT-320 (protein)
chain: B4 chain with Y21E, N88G, W92L, V260R, L290T, I294Q
B11: PRT-310 (protein)
chain: MQITSVWTKGVTPLTPEQFRENNEDVIHAPYLAHQGWYDITKAFDGKDNLLCGAATAGNMLHWWFDQNKTEIEAYLSKHPEKQKIIFNNQELFDLKAAIDTKDSQTNSQLFDYFRDKAFPNLSARQLGVMPDLVLDMFINGYYLNVFKTQSTDVNRPYQDKDKRGGIFDAVFTRGDQTTLLTARHDLKNKGLNDISTIIKQELTEGRALALSHTYANVSISHVINLWGADFDAEGNLEAIYVTDSDANASIGMKKYFVGRNAHGHVAISAKKIEGENIGAQVLGLFTLSSGKDQWQKLS
B12: PRT-311 (protein)
chain: B11 chain with L92W, D112N, F147P, D232N, F257A, R260I, Q294I
B13: PRT-312 (protein)
chain: B11 chain with N88G, D112N, F147G, D232N, A249P, Q294I
B14: PRT-294 (protein)
chain: MVTSVWTKGVTPPADFTQGEDVFHAPYDANQGWYDITKTFNGKDDLLCGAATAGNMLHWWFDQNKEYIEAYLKKHPEKQKIMFGDQELLDVRKAINTKGSQKNSELFNYFRDKAFPNLSARRLGVMPDLVLDMFINGYYLNVTKTQTTDVNRTYQEKDKRGGIFDAVFTRGDQSKLLTSRHDFKEKGLKEISDLIKQELTEGKALGLSHTYANVRISHVINLWGADFDSDGNLKAIYVTDSDSNASIGMKKYGVGVNSAGKVAISAKEIKEDNIGAQVLGLFTLSTGQDIWNQTN
B15: PRT-295 (protein)
chain: B14 chain with G253F, A259S
B16: PRT-302 (protein)
chain: B14 chain with A14T, T17I, Q18K, D28K, N30G, I216L, S217N
B17: PRT-303 (protein)
chain: B14 chain with A14T, T17I, Q18K, N30G
B18: PRT-304 (protein)
chain: B14 chain with A14T, T17I, Q18K, N30G, G253F, A259S
B19: PRT-296 (protein)
chain: B14 chain with D28V, T39E, S217G
B20: PRT-366 (protein)
chain: MSQTEDSESLQRLRDIEDFQAEKEKQNVVYTKWLDGVDVKDHDFRKIVDGNSAYYATPLLNGRGFYDINKDFNRDNDKCAAAVAANMFHYWLDRNRDNVDRFLRQNPEKHGIIELPDGQLKLSDFLNTYESDDGYRDKSKLFDFISNNFNGPVWTDKLLDNYINGYAYNYKYGRTIEDSTKNTSKINFFKEVFNEKILTNNHSIRNQNEFSVLLSEALYTGKAIGLSYGPAGLRHSLGHIISVWGADLDADGNVVAIYVTDSDDKKLTIGDERVGLKRYKISTDDEGRLRLTAYEETHNTGGQVRGLWTLDTGKQAWADYFDKTEQTGTDQAEQ

Biological target: pooled human IgG (human IgG1,2,3 and 4)

| Protein | Enzyme Activity Endpoint Assay (purified): Fab'2 [ng/µL] | Enzyme Activity Endpoint Assay (purified): Fc [ng/µL] | Enzyme Activity Endpoint Assay (purified): IgG [ng/µL] | Enzyme Activity Endpoint Assay (purified): scIgG [ng/µL] |
| --- | --- | --- | --- | --- |
| B1 | 15 | 209 | 206 | 841 |
| B2 | 520 | 243 | 668 | 200 |
| B3 | 8 | 90 | 86 | 375 |
| B4 | 641 | 365 | 110 | 100 |
| B5 | 670 | 372 | 32 | 0 |
| B6 | 460 | 338 | 472 | 0 |
| B7 | 59 | 257 | 154 | 738 |
| B8 | 1000 | 455 | 75 | 0 |
| B9 | 588 | 429 | 458 | 0 |
| B10 | 778 | 339 | 53 | 0 |
| B11 | 1220 | 488 | 0 | 0 |
| B12 | 261 | 295 | 109 | 496 |
| B13 | 703 | 330 | 53 | 54 |
| B14 | 651 | 456 | 506 | 5 |
| B15 | 529 | 398 | 446 | 0 |
| B16 | 1130 | 461 | 0 | 0 |
| B17 | 1080 | 482 | 0 | 0 |
| B18 | 711 | 320 | 0 | 0 |
| B19 | 955 | 443 | 0 | 0 |
| B20 | 0 | 122 | 777 | 472 |
